# Measured values from patent publication US20060233806A1 (JAPAN SCIENCE AND TECHNOLOGY AGENCY, published 2006).
# Molecular target: T1, mouse integrin αvβ3 on NIH3T3 cells (mouse, UniProt P43406 31-1044; O54890 26-787)
# T1 construct: whole, on cells; Presented on NIH3T3 transformants; also called αvβ3 integrin; 3T3/αvβ3
# Test: cell adhesion assay on PS-coated wells pretreated with D89E
# Protocol: Peroxidase activity was detected using a peroxidase-detecting kit (Sumitomo Bakelite). To assay the ability of MFG-E8 to link the cells to phospholipids, MFG-E8 was bound to microtiter plates coated with phospholipids as described above. In tyrode buffer containing the cells (4×10⁴) (5 mM Hepes-NaOH buffer [pH 7.4], 135 mM NaCl, 5.4 mM KCl, 1.0 mM MgCl₂, 10 mM glucose, and 10 mg/ml BSA) was added to each well, and incubated at room temperature for 1 hour. The cells that had adhered to the plates were quantified by a CyQUANT Cell Proliferation Assay kit (Molecular Probes) using a fluorescent microplate reader (BioLumin 960, Molecular Dynamics) set at excitation wavelength of 485 nm and emission wavelength of 520 nm.
# Therefore, the possibility that MFG-E8-L might bind to integrin-expressing cells after said cells are bound to phospholipids was investigated. Microtiter wells coated with PS or PE were successively incubated with three different concentrations (0.1, 1.0 and 2.0 μg/ml) of MFG-E8-L or D89E, and with NIH3T3 (3T3/WT) or αᵥβ₃ integrin-expressing transformants (3T3/αᵥβ₃), and subjected to cell adhesion assay. The number of cells attached to the wells was quantified as described in the methods described in Example A-6. […] D89E mutant was not capable of intermediating the adhering of NIH3T3 cells to the wells coated with PS. […]
# T1 sequence (P43406 31-1044, chain 1 of 2): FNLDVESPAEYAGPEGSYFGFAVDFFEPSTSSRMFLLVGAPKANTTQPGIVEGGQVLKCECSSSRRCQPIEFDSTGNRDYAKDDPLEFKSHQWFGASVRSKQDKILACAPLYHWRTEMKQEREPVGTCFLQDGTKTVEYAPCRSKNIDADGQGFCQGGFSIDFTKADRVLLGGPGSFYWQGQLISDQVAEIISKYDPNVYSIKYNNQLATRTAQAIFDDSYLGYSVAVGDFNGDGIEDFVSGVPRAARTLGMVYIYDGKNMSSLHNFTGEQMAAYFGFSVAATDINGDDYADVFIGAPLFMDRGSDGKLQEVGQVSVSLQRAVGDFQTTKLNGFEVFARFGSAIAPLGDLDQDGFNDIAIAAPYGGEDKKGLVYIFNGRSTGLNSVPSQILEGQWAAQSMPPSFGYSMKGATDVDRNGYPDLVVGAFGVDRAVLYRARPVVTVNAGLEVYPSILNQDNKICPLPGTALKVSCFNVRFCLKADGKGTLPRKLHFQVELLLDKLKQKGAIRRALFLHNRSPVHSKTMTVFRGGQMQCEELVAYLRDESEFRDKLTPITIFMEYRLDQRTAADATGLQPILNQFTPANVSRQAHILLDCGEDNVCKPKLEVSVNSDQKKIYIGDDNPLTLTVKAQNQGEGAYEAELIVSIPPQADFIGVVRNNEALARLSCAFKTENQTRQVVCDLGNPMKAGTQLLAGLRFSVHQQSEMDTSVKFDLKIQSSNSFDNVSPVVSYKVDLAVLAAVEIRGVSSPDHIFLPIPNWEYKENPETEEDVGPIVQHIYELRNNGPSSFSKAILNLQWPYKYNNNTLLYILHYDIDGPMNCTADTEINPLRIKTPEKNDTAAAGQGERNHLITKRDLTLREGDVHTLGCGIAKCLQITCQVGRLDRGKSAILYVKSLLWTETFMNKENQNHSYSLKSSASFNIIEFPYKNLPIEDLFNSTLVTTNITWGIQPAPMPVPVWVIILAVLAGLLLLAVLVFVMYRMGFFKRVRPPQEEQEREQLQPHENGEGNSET
# T1 sequence (O54890 26-787, chain 2 of 2): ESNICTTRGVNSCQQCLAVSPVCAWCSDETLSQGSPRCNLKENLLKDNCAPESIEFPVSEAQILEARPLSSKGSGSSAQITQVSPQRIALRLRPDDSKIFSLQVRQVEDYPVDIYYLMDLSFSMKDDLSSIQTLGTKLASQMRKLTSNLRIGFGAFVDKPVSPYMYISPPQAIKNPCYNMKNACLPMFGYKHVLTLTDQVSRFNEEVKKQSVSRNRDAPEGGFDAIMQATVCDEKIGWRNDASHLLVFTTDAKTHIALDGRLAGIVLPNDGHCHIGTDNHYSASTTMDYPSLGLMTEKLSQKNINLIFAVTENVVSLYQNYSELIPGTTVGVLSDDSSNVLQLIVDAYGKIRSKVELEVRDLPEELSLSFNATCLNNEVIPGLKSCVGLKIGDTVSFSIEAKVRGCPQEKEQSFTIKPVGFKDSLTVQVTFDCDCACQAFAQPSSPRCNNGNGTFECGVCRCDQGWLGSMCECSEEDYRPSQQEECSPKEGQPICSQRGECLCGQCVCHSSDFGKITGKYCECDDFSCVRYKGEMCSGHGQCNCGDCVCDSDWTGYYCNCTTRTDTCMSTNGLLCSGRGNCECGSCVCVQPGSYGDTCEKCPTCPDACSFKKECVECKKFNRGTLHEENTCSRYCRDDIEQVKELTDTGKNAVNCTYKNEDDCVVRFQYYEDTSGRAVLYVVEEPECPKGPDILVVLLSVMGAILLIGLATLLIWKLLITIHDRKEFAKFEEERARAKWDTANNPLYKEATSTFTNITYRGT
binder,measurement,value
"D89E mutant of mouse MFG-E8-L (ligand, Point mutation in the RGD motif of the second EGF domain; Expressed in human 293T cells; also called D89 mutant; not shown: FLAG marker peptide at the C-terminus (derivatives were detected with anti-FLAG)) ASGDFCDSSLCLNGGTCLTGQDNDIYCLCPEGFTGLVCNETERGPCSPNPCYNDAKCLVTLDTQRGEIFTEYICQCPVGYSGIHCETETNYYNLDGEYMFTTAVPNTAVPTPAPTPDLSNNLASRCSTQLGMEGGAIADSQISASSVYMGFMGLQRWGPELARLYRTGIVNAWTASNYDSKPWIQVNLLRKMRVSGVMTQGASRAGRAEYLKTFKVAYSLDGRKFEFIQDESGGDKEFLGNLDNNSLKVNMFNPTLEAQYIRLYPVSCHRGCTLRFELLGCELHGCSEPLGLKNNTIPDSQMSASSSYKTWNLRAFGWYPHLGRLDNQGKINAWTAQSNSAKEWLQVDLGTQRQVTGIITQGARDFGHIQYVASYKVAHSDDGVQWTVYEEQGSSKVFQGNLDNNSHKKNIFEKPFMARYVRVLPVSWHNRITLRLELLGC",binding result,"no binding (tested: 0.1, 1.0 and 2.0 µg/ml)"
